Consider one substance from PMC3985676.

A word on the stoichiometry N: it is the number of molecules, sites or subunits per partner or assembly.

This experiment addresses BswR (Bacterial SWarming Regulator), PA2780 (Pseudomonas aeruginosa). Description: SEC; gel filtration profile during protein purification; HiLoad Superdex 75 26/60; 20 mM Tris pH 7.5, 200 mM NaCl, 5 mM beta-ME. In general terms: SEC sorts molecules by how far they enter the pores of the column.

The substance “BswR (Bacterial SWarming Regulator), PA2780 (natural protein)” registered a stoichiometry N of 2.
